“And” between values parts separate entries of the source, which are not always exact repeats. Identical values can stand only once.
Molecular target: the molecule itself
Test: cross-linking

B1: 6xHis-WT-mVP40 (Marburg virus matrix protein VP40, wild type) (natural protein)
chain: MASSSNYNTYMQYLNPPPYADHGANQLIPADQLSNQQGITPNYVGDLNLDDQFKGNVCHAFTLEAIIDISAYNERTVKGVPAWLPLGIMSNFEYPLAHTVAALLTGSYTITQFTHNGQKFVRVNRLGTGIPAHPLRMLREGNQAFIQNMVIPRNFSTNQFTYNLTNLVLSVQKLPDDAWRPSKDKLIGNTMHPAVSIHPNLPPIVLPTVKKQAYRQHKNPNNGPLLAISGILHQLRVEKVPEKTSLFRISLPADMFSVKEGMMKKRGENSPVVYFQAPENFPLNGFNNRQVVLAYANPTLSAV
stoichiometry N: 6 and 4
